The values that follow come from IntAct's records for PubMed 35512704.

Sequences and labels used below:
B1: Mothers against decapentaplegic homolog 4 (Homo sapiens), Q13485 (parent)
chain: MDNMSITNTPTSNDACLSIVHSLMCHRQGGESETFAKRAIESLVKKLKEKKDELDSLITAITTNGAHPSKCVTIQRTLDGRLQVAGRKGFPHVIYARLWRWPDLHKNELKHVKYCQYAFDLKCDSVCVNPYHYERVVSPGIDLSGLTLQSNAPSSMMVKDEYVHDFEGQPSLSTEGHSIQTIQHPPSNRASTETYSTPALLAPSESNATSTANFPNIPVASTSQPASILGGSHSEGLLQIASGPQPGQQQNGFTGQPATYHHNSTTTWTGSRTAPYTPNLPHHQNGHLQHHPPMPPHPGHYWPVHNELAFQPPISNHPAPEYWCSIAYFEMDVQVGETFKVPSSCPIVTVDGYVDPSGGDRFCLGQLSNVHRTEAIERARLHIGKGVQLECKGEGDVWVRCLSDHAVFVQSYYLDREAGRAPGDAVHKIYPSAYIKVFDLRQCHRQMQQQAATAQAAAAAQAAAVAGNIPGPGSVGGIAPAISLSAAAGIGVDDLRRLCILRMSFVKGWGPDYPRQSIKETPCWIEIHLHRALQLLDEVLHTMPIADPQPLD
partner: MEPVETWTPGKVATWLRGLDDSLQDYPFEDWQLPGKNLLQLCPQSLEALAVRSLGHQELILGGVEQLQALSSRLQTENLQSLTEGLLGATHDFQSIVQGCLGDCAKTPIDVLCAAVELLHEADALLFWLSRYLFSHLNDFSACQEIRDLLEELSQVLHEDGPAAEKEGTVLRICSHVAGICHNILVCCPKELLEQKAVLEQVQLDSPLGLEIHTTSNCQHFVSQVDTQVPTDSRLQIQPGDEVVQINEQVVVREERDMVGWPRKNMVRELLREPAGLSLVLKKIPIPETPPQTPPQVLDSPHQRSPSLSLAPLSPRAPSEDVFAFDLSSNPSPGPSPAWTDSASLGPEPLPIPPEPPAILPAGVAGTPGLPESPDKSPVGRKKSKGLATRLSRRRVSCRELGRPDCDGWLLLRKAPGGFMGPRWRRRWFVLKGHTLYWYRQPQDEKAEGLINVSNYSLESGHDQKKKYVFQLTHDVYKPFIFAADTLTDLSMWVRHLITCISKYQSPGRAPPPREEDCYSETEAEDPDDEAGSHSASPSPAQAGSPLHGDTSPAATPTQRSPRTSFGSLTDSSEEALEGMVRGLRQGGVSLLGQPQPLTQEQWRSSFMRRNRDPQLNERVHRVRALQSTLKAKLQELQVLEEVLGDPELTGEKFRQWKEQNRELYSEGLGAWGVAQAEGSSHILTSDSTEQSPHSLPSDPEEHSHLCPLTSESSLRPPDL
B2: Mothers against decapentaplegic homolog 4 (Homo sapiens), Q13485 (parent)
chain: B1 chain
partner: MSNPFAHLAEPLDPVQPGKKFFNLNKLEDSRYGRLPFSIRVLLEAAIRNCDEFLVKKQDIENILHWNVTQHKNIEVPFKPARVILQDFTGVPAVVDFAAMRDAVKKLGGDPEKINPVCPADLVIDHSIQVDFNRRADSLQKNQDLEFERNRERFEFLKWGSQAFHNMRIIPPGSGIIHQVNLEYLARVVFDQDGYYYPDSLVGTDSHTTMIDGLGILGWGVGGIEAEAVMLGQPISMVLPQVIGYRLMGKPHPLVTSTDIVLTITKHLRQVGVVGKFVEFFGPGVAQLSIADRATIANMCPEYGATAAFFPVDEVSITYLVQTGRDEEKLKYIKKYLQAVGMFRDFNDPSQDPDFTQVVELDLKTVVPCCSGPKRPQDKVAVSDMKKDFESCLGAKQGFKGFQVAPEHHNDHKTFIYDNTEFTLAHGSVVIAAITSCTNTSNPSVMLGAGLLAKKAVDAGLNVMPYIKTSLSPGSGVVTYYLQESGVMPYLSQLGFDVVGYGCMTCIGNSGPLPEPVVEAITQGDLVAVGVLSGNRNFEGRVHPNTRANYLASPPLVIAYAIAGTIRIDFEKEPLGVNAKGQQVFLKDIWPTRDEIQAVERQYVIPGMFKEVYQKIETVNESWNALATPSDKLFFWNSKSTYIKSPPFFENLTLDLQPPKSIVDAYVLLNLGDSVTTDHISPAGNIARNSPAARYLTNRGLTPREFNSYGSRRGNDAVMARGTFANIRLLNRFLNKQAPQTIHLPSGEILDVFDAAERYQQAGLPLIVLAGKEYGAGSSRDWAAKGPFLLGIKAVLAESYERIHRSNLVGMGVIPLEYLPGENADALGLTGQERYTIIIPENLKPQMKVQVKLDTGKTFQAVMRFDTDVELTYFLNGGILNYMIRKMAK
B3: Mothers against decapentaplegic homolog 4 (Homo sapiens), Q13485 (parent)
chain: B1 chain
partner: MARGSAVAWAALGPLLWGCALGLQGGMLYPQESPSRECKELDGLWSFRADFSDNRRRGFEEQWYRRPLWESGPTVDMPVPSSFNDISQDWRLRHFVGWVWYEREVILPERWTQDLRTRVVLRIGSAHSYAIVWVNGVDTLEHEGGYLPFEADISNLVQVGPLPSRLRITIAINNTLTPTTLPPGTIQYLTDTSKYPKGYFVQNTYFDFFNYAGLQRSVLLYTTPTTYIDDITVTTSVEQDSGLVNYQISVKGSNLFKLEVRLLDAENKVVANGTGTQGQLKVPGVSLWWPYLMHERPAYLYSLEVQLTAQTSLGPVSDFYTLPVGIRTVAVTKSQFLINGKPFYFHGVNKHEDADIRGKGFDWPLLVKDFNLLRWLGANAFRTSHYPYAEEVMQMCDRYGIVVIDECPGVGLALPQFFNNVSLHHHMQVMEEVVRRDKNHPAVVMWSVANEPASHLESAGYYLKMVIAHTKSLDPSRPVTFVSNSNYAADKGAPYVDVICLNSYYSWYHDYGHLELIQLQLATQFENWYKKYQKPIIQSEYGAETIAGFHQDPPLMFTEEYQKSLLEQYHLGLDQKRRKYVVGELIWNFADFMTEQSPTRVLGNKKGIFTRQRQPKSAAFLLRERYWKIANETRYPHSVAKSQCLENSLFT
B4: Mothers against decapentaplegic homolog 4 (Homo sapiens), Q13485 (parent)
chain: B1 chain
partner: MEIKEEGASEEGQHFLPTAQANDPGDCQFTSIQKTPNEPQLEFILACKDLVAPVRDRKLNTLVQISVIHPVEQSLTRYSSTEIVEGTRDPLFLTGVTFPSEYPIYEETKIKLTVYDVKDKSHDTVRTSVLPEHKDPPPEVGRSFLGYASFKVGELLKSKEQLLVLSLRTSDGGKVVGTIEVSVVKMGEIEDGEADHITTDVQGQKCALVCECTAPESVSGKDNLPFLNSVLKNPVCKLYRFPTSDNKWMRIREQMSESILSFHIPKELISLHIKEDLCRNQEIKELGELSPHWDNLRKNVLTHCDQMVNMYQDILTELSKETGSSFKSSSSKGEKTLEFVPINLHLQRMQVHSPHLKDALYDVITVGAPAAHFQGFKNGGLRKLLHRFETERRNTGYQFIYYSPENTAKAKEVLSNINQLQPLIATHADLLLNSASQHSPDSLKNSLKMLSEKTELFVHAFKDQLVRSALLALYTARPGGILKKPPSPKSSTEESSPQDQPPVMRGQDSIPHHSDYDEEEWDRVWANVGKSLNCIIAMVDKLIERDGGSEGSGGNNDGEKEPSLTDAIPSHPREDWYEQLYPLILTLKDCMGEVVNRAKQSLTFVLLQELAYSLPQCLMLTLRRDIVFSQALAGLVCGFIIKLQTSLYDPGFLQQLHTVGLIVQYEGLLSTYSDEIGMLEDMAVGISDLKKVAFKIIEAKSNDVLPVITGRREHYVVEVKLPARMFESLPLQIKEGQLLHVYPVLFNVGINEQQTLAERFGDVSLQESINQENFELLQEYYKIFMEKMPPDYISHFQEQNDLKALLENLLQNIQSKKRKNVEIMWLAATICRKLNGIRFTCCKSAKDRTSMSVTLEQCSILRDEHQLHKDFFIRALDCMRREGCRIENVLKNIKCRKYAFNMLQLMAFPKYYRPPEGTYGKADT

In one test the parent is B1. Particulars: with cnkr1_human CNKSR1, Q969H4.
For R361H, the “effect of a mutation on the interaction” value is “with no effect”.

The variants in another test derive from B1. Particulars: with cnkr1_human CNKSR1, Q969H4. This is another data set of the same source.
With G386D, the “effect of a mutation on the interaction” value is on record as “with no effect”.

Variants of B2 are the subject of another test. The following applies: with acohc_human ACO1, P21399.
As to D351H, the “effect of a mutation on the interaction” value is listed as “with no effect”.

In the next test the parent is B2. The following applies: with acohc_human ACO1, P21399. The source holds these as a separate data set.
Turning to R361C, the “effect of a mutation on the interaction” value is reported as “with no effect”.

In a further test the parent is B2. The following applies: with acohc_human ACO1, P21399. This is another data set of the same source.
Regarding R361H, the “effect of a mutation on the interaction” value is “with no effect”.

The variants in the next test derive from B2. Particulars: with acohc_human ACO1, P21399. This is another data set of the same source.
Take G386D: the “effect of a mutation on the interaction” value is “with no effect”.

Variants of B3 are the subject of another test. Particulars: with bglr_human GUSB.
Regarding G386D, the “effect of a mutation on the interaction” value was “with no effect”.

Another test covers variants of B3. The following applies: with bglr_human GUSB. This is another data set of the same source.
Regarding R361H, the “effect of a mutation on the interaction” value is on record as “with no effect”.

A further test covers variants of B3. Particulars: with bglr_human GUSB. The source holds these as a separate data set.
With R361C, the “effect of a mutation on the interaction” value is “with no effect”.

Variants of B3 are the subject of a further test. Particulars: with bglr_human GUSB. The source holds these as a separate data set.
D351H: the “effect of a mutation on the interaction” value is recorded as “with no effect”.

In a further test the parent is B4. The following applies: with inp4b_human INPP4B.
G386D: the “effect of a mutation on the interaction” value was “with no effect”.

Variants of B4 are the subject of the next test. Particulars: with inp4b_human INPP4B. This is another data set of the same source.
In the case of R361C, the “effect of a mutation on the interaction” value was “with no effect”.

The next test covers variants of B4. The following applies: with inp4b_human INPP4B. The source holds these as a separate data set.
Turning to R361H, the “effect of a mutation on the interaction” value is recorded as “with no effect”.

The variants in the next test derive from B4. The following applies: with inp4b_human INPP4B. This is another data set of the same source.
As for D351H, the “effect of a mutation on the interaction” value is given as “with no effect”.
